We go through one substance from PMC12496170.

This experiment deals with Spike-Accum bioconjugate (Accum-bioconjugated Sp protein) (SARS-CoV-2) (UniProt P0DTC2). Description: cryo-EM structure.

A word on the stoichiometry N: it is the number of molecules, sites or subunits per partner or assembly. In turn, “Spike-Accum bioconjugate (Accum-bioconjugated Sp protein) (from UniProt P0DTC2 14-1213)” returned a stoichiometry N of 3.
